Results as given in US20090286724A1, “AGGREGABLE GLP-1 ANALOGUE AND SUSTAINED-RELEASE PHARMACEUTICAL COMPOSITION” (CHUGAI SEIYAKU KABUSHIKI KAISHA, priority 2005, published 2009).
Ends that are not written are not given here.

Tests used:
[1] = Evaluation for aggregability by stirring in PBS (absorbance at 350 nm, monomer by RP-HPLC); format: physicochemical; settings: 1 mg/mL in PBS
Protocol: Each of the GLP-1 analogue and WT-GLP-1 in Example 1 was dissolved in PBS at a concentration of 1 mg/mL, and the amount of monomer was determined by RP-HPLC. 450 μL of each of the same solutions was placed into a glass vial along with a stirring bar, and the solution was stirred with a stirrer at room temperature for 20 hours. After stirring, the absorbance of the solution at 350 nm was determined (DU640, manufactured by Beckman). As for the supernatant after centrifugation, the monomer quantification by RP-HPLC and CD measurement (J-725, manufactured by Jasco Co.) were carried out.
System: NanoSpace SI-2 (manufactured by Shiseido Co., Ltd.)
Column: Capcell PAK C18, 1 mm×75 mm (manufactured by Shiseido Co., Ltd.)
Eluent A: water/acetonitrile/TFA=949/50/1
Eluent B: water/acetonitrile/TFA=50/949/1
Elution method: Gradient from 80/20 to 20/80 (Eluent A/Eluent B)
The aggregability of Peptide 3 was evaluated in the same manner as the method shown in Example 2.

[2] = peptide 100 μg/mL, 100 mM HEPES pH 7.4, 25° C., 18 hours
Protocol: Further, zinc chloride was dissolved in Milli-Q water to give a final concentration of 0.1 mg/mL. 1 M HEPES (N-[2-hydroxyethyl]piperazine-N′-[2-ethanesulfonic acid]) buffer (pH 7.4) was separately prepared. To each of the aqueous solutions of peptide, the HEPES buffer, Milli-Q water and the aqueous solution of zinc chloride were sequentially added, whereby samples were prepared such that the final volume was 1 mL, the final concentration of peptide was 100 μg/mL, the final concentration of HEPES (pH 7.4) was 100 mM, and the ratio of zinc chloride to the mole number of peptide became various ratios (Z/P=0 to 30). These samples were let stand at room temperature (25° C.) for 18 hours. Each mixture was centrifuged (10,000 g, 3 min), and the concentration of peptide in the supernatant was determined by RP-HPLC.

[3] = In vitro release test of GLP-1 from Zinc/GLP-1 complex; format: physicochemical; settings: PBS pH 7.4, 37° C.
Protocol: The quantification of GLP-1 analogue was carried out using RP-HPLC.
400 μg of each of WT-GLP-1 and GLP-1 analogue (Peptide 1) was dissolved in a 1 mM HCl solution (200 μL, pH: 2.8) containing 2 mg/mL zinc chloride. 100 μL of each of the resulting solutions was added to E-tube and diluted with a 1 mM HCl solution, whereby a 1 mg/mL solution was prepared. Then, 20 μL of PB (pH: 8.9, 100 mM) was added thereto, whereby a complex of Zinc/GLP-1 was formed. After the resulting mixture was centrifuged at 15,000 rpm for 5 minutes, the supernatant was removed, whereby a Zinc/GLP-1 complex was obtained.
PBS (0.5 mL, pH: 7.4) was added to E-tube containing the Zinc/GLP-1 complex at 37° C. The E-tube was centrifuged at different time points, and the supernatant was sampled, and 0.5 mL of PBS was freshly added thereto. 20 μL of 0.2 M HCl was added to 200 μL of the sample, and quantification was carried out by RP-HPLC.

[4] = Precipitation of peptide as zinc salt, peptide in supernatant by RP-HPLC; format: physicochemical; settings: Z/P=15, peptide 1 mg/mL, 100 mM HEPES pH 7.4, 25° C., 18 hours
Protocol: Further, zinc chloride was dissolved in Milli-Q water to give a final concentration of 1 mg/mL. 1 M HEPES buffer (pH 7.4) was separately prepared. To the aqueous solution of peptide, the HEPES buffer, Milli-Q water and the aqueous solution of zinc chloride were sequentially added, whereby a sample was prepared such that the final volume was 30 mL, the final concentration of peptide was 1 mg/mL, the final concentration of HEPES (pH 7.4) was 100 mM, and the ratio of zinc chloride to Peptide 1 became Z/P=1. The resulting solution was let stand at room temperature (25° C.) for 18 hours. […] The solution was subjected to a centrifugation procedure (10,000 g, 3 min) and decantation, whereby the white precipitate and supernatant were separated.
Further, zinc chloride was dissolved in Milli-Q water to give a final concentration of 1 mg/mL. 1 M HEPES buffer (pH 7.4) was separately prepared. […] The resulting solution was let stand at room temperature (25° C.) for 18 hours. […] The solution was subjected to a centrifugation procedure (10,000 g, 3 min) and decantation, whereby the white precipitate and supernatant were separated.

Human GLP-1 receptor = Human GLP-1 receptor (human, UniProt P43220); experiment: cell-based or functional assay

Peptide 3: comparative GLP-1 analogue with an isoelectric point nearly equal to that of Peptide 1 (HGEGTFTSDVKSYLEGQAAKEFIAWLVKGRG)
aggregability compared with WT-GLP-1 ([1]; stirred 20 hours): an increase in the aggregability compared with that of WT-GLP-1 was not observed | UV 350 nm Absorbance ([1]; stirred at room temperature for 20 hours): 0.06 | RP-HPLC Amount of residual monomer (%) ([1]; stirred at room temperature for 20 hours, supernatant after centrifugation): 95%

HGEGTFTSDVSSYLEGQAAKEFIRWLVKGRG [Peptide 1, [Gly^8]-[Arg^30]-GLP-1(7-37)]
ratio of added zinc to peptide (Z/P) when the solubility was the lowest [2]: around 1

CC[C@H](C)[C@H](NC(=O)[C@H](Cc1ccccc1)NC(=O)[C@H](CCC(=O)O)NC(=O)[C@H](CCCCN)NC(=O)[C@H](C)NC(=O)[C@H](C)NC(=O)[C@H](CCC(N)=O)NC(=O)CNC(=O)[C@H](CCC(=O)O)NC(=O)[C@H](CC(C)C)NC(=O)[C@H](Cc1ccc(O)cc1)NC(=O)[C@H](CO)NC(=O)[C@H](CO)NC(=O)[C@@H](NC(=O)[C@H](CC(=O)O)NC(=O)[C@H](CO)NC(=O)[C@@H](NC(=O)[C@H](Cc1ccccc1)NC(=O)[C@@H](NC(=O)CNC(=O)[C@H](CCC(=O)O)NC(=O)[C@H](C)NC(=O)[C@@H](N)Cc1c[nH]cn1)[C@@H](C)O)[C@@H](C)O)C(C)C)C(=O)N[C@@H](C)C(=O)N[C@@H](Cc1c[nH]c2ccccc12)C(=O)N[C@@H](CC(C)C)C(=O)N[C@H](C(=O)N[C@@H](CCCCN)C(=O)NCC(=O)N[C@@H](CCCNC(=N)N)C(=O)NCC(=O)O)C(C)C [WT, GLP-1(7-37)]
release observed until day [3]: 14 days | peptide precipitated as a zinc salt [4]: 95.7%

HGEGTFTSDVSSYLEGQAAKEFIRWLVKGRG [[Gly^8]-[Arg^30]-GLP-1(7-37)]
EC50 value for cAMP production (Human GLP-1 receptor): 0.0902 nM
